Measured values as given in PMC8473724.
Blank lines part the entries; values can stand above or below the substance they belong to.

Tests used:
[1] = target: ANKLE2; assay: anti-FLAG co-immunoprecipitation, SILAC LC-MS; conditions: Ramos PTP1B KO cells; n = 3; read off a plot; scale: log10 SILAC ratio
[2] = target: ARHGAP12 iso 2; assay: anti-FLAG co-immunoprecipitation, SILAC LC-MS; conditions: Ramos PTP1B KO cells; n = 3; read off a plot; scale: log10 SILAC ratio
[3] = target: ARHGAP12 iso 3; assay: anti-FLAG co-immunoprecipitation, SILAC LC-MS; conditions: Ramos PTP1B KO cells; n = 3; read off a plot; scale: log10 SILAC ratio
[4] = target: CDC20; assay: anti-FLAG co-immunoprecipitation, SILAC LC-MS; conditions: Ramos PTP1B KO cells; n = 3; read off a plot; scale: log10 SILAC ratio
[5] = target: PTRH2; assay: anti-FLAG co-immunoprecipitation, SILAC LC-MS; conditions: Ramos PTP1B KO cells; n = 3; read off a plot; scale: log10 SILAC ratio
[6] = target: TNK2; assay: anti-FLAG co-immunoprecipitation, SILAC LC-MS; conditions: Ramos PTP1B KO cells; n = 3; read off a plot; scale: log10 SILAC ratio
[7] = target: intersectin-2 (ITSN2) [human (endogenous in Ramos)]; assay: anti-FLAG co-immunoprecipitation, SILAC LC-MS; conditions: Ramos PTP1B KO cells; n = 3; read off a plot; scale: log10 SILAC ratio
[8] = target: GRB2 (UniProt P62993); assay: anti-Myc co-IP, anti-GRB2 immunoblot; conditions: reference: CD22-Myc wild type; sites Y807

enrichment [1]: 0.97
enrichment [2]: 1.6
enrichment [3]: 1.2
enrichment [4]: 0.88
enrichment [5]: 1.4
enrichment [6]: 0.6
Substance: FLAG-PTP1B WT (protein tyrosine phosphatase 1B) (from UniProt P18031) D181A; Y46F

enrichment [7]: 0.5
Substance: FLAG-PTP1B WT (protein tyrosine phosphatase 1B) mutant D181A; Y46F [not stated] / intersectin-2 (ITSN2) [human (endogenous in Ramos)] chain 1 Y46F, chain 1 D181A

binding against the reference [8]: lost
Substance: CD22 (from UniProt P20273) Y807F
